According to patent US20090068207A1, “Compositions Containing Beta 2-Glycoprotein I-Derived Peptides for the Prevention and/or Treatment of Vascular Disease” (Vascular Biogenics Ltd., priority 2005, published 2009):

Test system: aorta tissue from ApoE-KO mice
Assay: RT-PCR analysis of cytokine expression in aorta
Assay type: in vivo
Conditions: oral 100 μg/mouse, 5 times every other day; male ApoE-KO mice
Procedure: RT-PCR analysis of cytokine expression: 7-9 week old male ApoE-KO mice were tolerized by oral administration of β2GPI in 5 feedings, every other day, of human β2GPI (100 μg/mouse) or PBS, as control, by gavage, as detailed hereinabove. Three days following the oral administration of β2GPI, the mice were sacrificed, aortas collected and processed for RT-PCR analysis of the expression of anti-inflammatory Th2 type cytokine IL-10 and the proinflammatory Th1-type cytokine IFN-γ. The RT-PCR analysis was performed according to the protocol as described in detail by Colle et al (Journal of Immunol Methods 1997; 175-184). Briefly, RNA was extracted from the aortal tissue and reverse transcribed according to well-known, standard protocols, and the transcription products subjected to PCR amplification using the following primers: IL-10-forward primer 5′ […] 3′ (SEQ ID NO: 1), located at nucleotide positions 256-278 of IL-10 (GenBank Accession No. NM 010548 (SEQ ID NO: 2)) and reverse primer 5′[…] 3′ (SEQ ID NO: 3), located at nucleotide positions 532-556 of IL-10 (GenBank Accession No. NM 010548 (SEQ ID NO: 2)); IFN-γ-forward primer 5′ […] 3′ (SEQ ID NO: 4), located at nucleotide positions 372-397 of IFN-γ (GenBank Accession No. NM 008337 (SEQ ID NO: 5)), reverse primer 5′ […] 3′ (SEQ ID NO: 6), located at nucleotide positions 804-827 of IFN-γ (GenBank Accession No. NM 008337 (SEQ ID NO: 5)); and β-actin-forward primer 5′ […] 3′ (SEQ ID NO: 7), located at nucleotide positions 230-252 of β-actin (GenBank Accession No. NM 007393 (SEQ ID NO: 8)), and reverse primer 5′ […] 3′ (SEQ ID NO: 9), located at nucleotide positions […] of β-actin (GenBank Accession No. NM 007393 (SEQ ID NO: 8)). The resultant amplified IL-10, IFN-γ and β-actin transcripts were separated by electrophoresis on an agarose gel, and visualized by ehtidium bromide staining.
Male ApoE-KO mice 7-9 weeks of age were treated by oral administration of human β2GPI (100 μg/mouse) or PBS, as control, by gavage, as detailed hereinabove, 5 times, on every other day. […]

B1: Human β2 GPI: human beta2-glycoprotein I (SEQ ID NO: 10) purified from serum (protein)
chain: MISPVLILFSSFLCHVAIAGRTCPKPDDLPFSTVVPLKTFYEPGEEITYSCKPGYVSRGGMRKFICPLTGLWPINTLKCTPRVCPFAGILENGAVRYTTFEYPNTISFSCNTGFYLNGADSAKCTEEGKWSPELPVCAPIICPPPSIPTFATLRVYKPSAGNNSLYRDTAVFECLPQHAMFGNDTITCTTHGNWTKLPECREVKCPFPSRPDNGFVNYPAKPTLYYKDKATFGCHDGYSLDGPEEIECTKLGNWSAMPSCKASCKLPVKKATVVYQGERVKIQEKFKNGMLHGDKVSFFCKNKEKKCSYTEDAQCIDGTIEVPKCFKEHSSLAFWKTDASDVKPC
In the case of B1, the “expression of IFN-γ in aorta (RT-PCR)” value is reported as “inhibition of expression”, the “expression of IL-10 in aorta (RT-PCR)” value is reported as “induction of expression” and the “tissue levels of β-actin gene transcripts (RT-PCR)” value is reported as “without any influence”.
